The values below come from PMC6650551, “Identification of Dephospho-Coenzyme A (Dephospho-CoA) Kinase in Thermococcus kodakarensis and Elucidation of the Entire CoA Biosynthesis Pathway in Archaea” (mBio, 2019).

Substrate in series [1]: CC(C)(COP(=O)(O)OP(=O)(O)OC[C@H]1O[C@@H](n2cnc3c(N)ncnc32)[C@H](O)[C@@H]1O)[C@@H](O)C(=O)NCCC(=O)NCCS
Kind of series: purified protein. It counts as biochemical, Thermococcus kodakarensis. The note with it: 5 mM GTP varied dephospho-CoA, 5 mM MgCl2, 300 mM KCl, 50 mM Bicine pH 8.0, 80 °C.

Substrate in series [2]: Nc1nc2c(ncn2[C@@H]2O[C@H](COP(=O)(O)OP(=O)(O)OP(=O)(O)O)[C@@H](O)[C@H]2O)c(=O)[nH]1
Kind of series: purified protein. In kind it is biochemical, Thermococcus kodakarensis. The note with it: 1 mM dephospho-CoA, varied GTP, 5 mM MgCl2, 300 mM KCl, 50 mM Bicine pH 8.0, 80 °C.

B1: TK1697 protein (Tk-DPCK) (Thermococcus kodakarensis KOD1) (protein)
chain: MKMFFRLTRELRDELKRPLGELVRGPIPEPYLKVRGELEKHPVVTVGDVVTENVLKIGVKPIIALYDLKTKRKEYSPEIEDTAVFLTVTNPPGTITKALLDTVRKAFGLAERGRNVHILVSGEEDLAAIPAVLYAPLGTLVLYGQPDEGVVLIKVTPECKRRCAKILASMEVVRDGD
notes: full-length gene in pET21a(+) (NdeI/EcoRI, own stop codon, untagged), expressed in E. coli BL21-CodonPlus(DE3)-RIL; calculated 19,657 Da
What is called Km is the concentration of substrate that gives half-maximal velocity. The Vmax is the top rate of the reaction or transport when substrate is in excess. A word on the kcat: it is the number of substrate molecules converted per active site and unit of time at saturation. By kcat/Km is commonly meant the turnover number divided by the Michaelis constant. B1: in the series “purified protein [1]”, the Km is 140 ± 20 µM, the maximum rate (Vmax) was determined as 17 µmol/min/mg, the catalytic constant (kcat) worked out at 5.57 s⁻¹ and the catalytic efficiency (kcat/Km) worked out at 40400 M⁻¹ s⁻¹. Moreover, in the series “purified protein [2]”, the Michaelis constant (Km) came to 260 ± 60 µM, the maximal velocity (Vmax) is 20.4 µmol/min/mg, the turnover number (kcat) was 6.68 s⁻¹ and the kcat/Km turned out to be 25700 M⁻¹ s⁻¹.
